B1: Azoarcus group I ribozyme (parent)
chain: GUGCCUUGCGCCGGGAAACCACGCAAGGGAUGGUGUCAAAUUCGGCGAAACCUAAGCGCCCGCCCGGGCGUAUGGCAACGCCGAGCCAAGCUUCGGCGCCUGCGCCGAUGAAGGUGUAGAGACUAGACGGCACCCACCUAAGGCAAACGCUAUGGUGAAGGCAUAGUCCAGGGAGUGGCGAAAGUCACACAAACCGG

Variants of: B1
Assay: reverse-splicing fitness (ratio to wild type); higher = more active; in vitro selection; Mg2+ level not given
How it was run: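 An in vitro group I ribozyme library with randomized positions was T7-transcribed and gel-purified. In triplicate, 10 pmol RNA in EPPS pH 7.5 was reacted with 50 pmoles of a 30-nt RNA substrate for 1 h at 37 °C across several added MgCl2 levels (1–48 mM), then stopped with EDTA. Products were reverse transcribed from a substrate-complementary primer, PCR-amplified and sequenced (HiSeq 4000). Fitness is a variant's read proportion after selection over that before, normalised to wild type.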

Row | Variant | reverse-splicing fitness
1 | C82G A111U A120C A145G C150G C169G U176A | 0.0117
2 | C82G A111U A120C A145G C150G C169G U176G | 0.00661
3 | C82G A111U A120C A145G C150G C169G U176C | 0.0139
4 | C82G A111U A120C A145C C150U C169U U176A | 0.0127
5 | C82G A111U A120C A145C C150U C169U U176C | 0.0118
6 | C82G A111U A120C A145C C150U C169U U176G | 0.00678
7 | C82G A111U A120C A145C U176G | 0.00674
8 | C82G A111U A120C A145C U176C | 0.0234
9 | C82G A111U A120C A145C U176A | 0.0155
10 | C82G A111U A120C A145C C150U C169U | 0.0113
11 | C82G A111U A120C A145C C150U C169G | 0.00854
12 | C82G A111U A120C A145C C150U C169A | 0.00911
13 | C82G A111U A120C A145G C150A C169U U176C | 0.0159
14 | C82G A111U A120C A145G C150A C169U U176A | 0.0148
15 | C82G A111U A120C A145G C150A C169U U176G | 0.00802
16 | C82G A111U A120C A145U C169U U176C | 0.0158
17 | C82G A111U A120C A145U C169U U176G | 0.00499
18 | C82G A111U A120C A145U C169U U176A | 0.0149
19 | C82G A111U A120C A145U C150G C169A U176G | 0.00704
20 | C82G A111U A120C A145U C150G C169A U176C | 0.0107
21 | C82G A111U A120C A145U C150G C169A U176A | 0.0121

Row | Variant | reverse-splicing fitness
22 | C82G A111U A120C A145U C150U U176A | 0.015
23 | C82G A111U A120C A145U C150U U176C | 0.0247
24 | C82G A111U A120C A145U C150U U176G | 0.00687
25 | C82G A111U A120C A145C C150U C169A U176C | 0.0115
26 | C82G A111U A120C A145C C150U C169A U176A | 0.0164
27 | C82G A111U A120C A145C C150U C169A U176G | 0.00651
28 | C82G A111U A120C A145G U176C | 0.0311
29 | C82G A111U A120C A145G U176G | 0.00743
30 | C82G A111U A120C A145G U176A | 0.0173
31 | C82G A111U A120C A145C C150G U176A | 0.00451
32 | C82G A111U A120C A145C C150G U176G | 0.00354
33 | C82G A111U A120C A145C C150G U176C | 0.00843
34 | C82G A111U A120C A145C C169G U176C | 0.0236
35 | C82G A111U A120C A145C C169G U176G | 0.00667
36 | C82G A111U A120C A145C C169G U176A | 0.0301
37 | C82G A111U A120C A145C C169U U176C | 0.0128
38 | C82G A111U A120C A145C C169U U176G | 0.00455
39 | C82G A111U A120C A145C C169U U176A | 0.0148
40 | C82G A111U A120C A145G C169G | 0.00963
41 | C82G A111U A120C A145G C169A | 0.0109
42 | C82G A111U A120C A145G C169U | 0.0141

Row | Variant | reverse-splicing fitness
43 | C82G A111U A120C A145U | 0.0517
44 | C82G A111U A120C A145G | 0.0543
45 | C82G A111U A120C A145U C150G C169G | 0.00772
46 | C82G A111U A120C A145U C150G C169A | 0.00911
47 | C82G A111U A120C A145U C150G C169U | 0.00954
48 | C82G A111U A120C A145G C150A C169G U176A | 0.0181
49 | C82G A111U A120C A145G C150A C169G U176C | 0.0297
50 | C82G A111U A120C A145G C150A C169G U176G | 0.00823
51 | C82G A111U A120C A145G C169A U176C | 0.0267
52 | C82G A111U A120C A145G C169A U176G | 0.00615
53 | C82G A111U A120C A145G C169A U176A | 0.0222
54 | C82G A111U A120C A145U C169G U176C | 0.0213
55 | C82G A111U A120C A145U C169G U176A | 0.0154
56 | C82G A111U A120C A145U C169G U176G | 0.00535
57 | C82G A111U A120C A145G C150A C169G | 0.00949
58 | C82G A111U A120C A145G C150A C169A | 0.0113
59 | C82G A111U A120C A145G C150A C169U | 0.0121
60 | C82G A111U A120C A145C C150U U176G | 0.00601
61 | C82G A111U A120C A145C C150U U176A | 0.0111
62 | C82G A111U A120C A145C C150U U176C | 0.0178
63 | C82G A111U A120C A145C C150U C169G U176A | 0.0279

Row | Variant | reverse-splicing fitness
64 | C82G A111U A120C A145C C150U C169G U176C | 0.0221
65 | C82G A111U A120C A145C C150U C169G U176G | 0.00776
66 | C82G A111U A120C A145U C150G C169U U176C | 0.0123
67 | C82G A111U A120C A145U C150G C169U U176A | 0.0083
68 | C82G A111U A120C A145U C150G C169U U176G | 0.00561
69 | C82G A111U A120C A145U C169U | 0.0143
70 | C82G A111U A120C A145U C169G | 0.00981
71 | C82G A111U A120C A145U C169A | 0.00897
72 | C82G A111U A120C A145C C150U | 0.0168
73 | C82G A111U A120C A145U C150A C169G U176G | 0.00638
74 | C82G A111U A120C A145U C150A C169G U176A | 0.0207
75 | C82G A111U A120C A145U C150A C169G U176C | 0.0247
76 | C82G A111U A120C A145G C150A | 0.0162
77 | C82G A111U A120C A145G C150U | 0.0415
78 | C82G A111U A120C A145G C150G | 0.0114
79 | C82G A111U A120C A145G C150A U176A | 0.011
80 | C82G A111U A120C A145G C150A U176C | 0.0228
81 | C82G A111U A120C A145G C150A U176G | 0.0103
82 | C82G A111U A120C A145C C150G C169G U176G | 0.00606
83 | C82G A111U A120C A145C C150G C169G U176C | 0.00909
